Laboratory results from patent US7364737 (Scripps Research, dated 2008).

B1: Fab clone 19 (Fab, V domains shown)
VH: QVKLLEESGGGLVRLAGSLRLSCAASGTTLSGYTMHWVRQAPGKGLEWVSSITGGSNFINYSDSVKGRFTISRDNAKNSLYLQMNSLTAEDTAVYYCATAPIAPPYFDHWGQGTLVTVSS
VL: ELTQSPSSLSASVGDRVTITCRATQSVSNFLNWYQQKPGEAPTLLIYDASTSQSGVPSRFSGSGSGMDFSLTISSLQPEDLAMYYCQASINTPLFGGGTRIDMR
notes: Human IgG1 kappa Fab made as soluble Fab in E. coli; Variable domains are identical to clone 13; also called Fab 19; RSV Fab 19
B2: Fab clone 13 (Fab, V domains shown)
VH: QVKLLEESGGGLVRLAGSLRLSCAASGTTLSGYTMHWVRQAPGKGLEWVSSITGGSNFINYSDSVKGRFTISRDNAKNSLYLQMNSLTAEDTAVYYCATAPIAPPYFDHWGQGTLVTVSS
VL: ELTQSPSSLSASVGDRVTITCRATQSVSNFLNWYQQKPGEAPTLLIYDASTSQSGVPSRFSGSGSGMDFSLTISSLQPEDLAMYYCQASINTPLFGGGTRIDMR
notes: Human IgG1 kappa Fab made as soluble Fab in E. coli; Variable domains are identical to clone 19; also called Fab 13; rsv 13H/13L
B3: Fab clone 11 (Fab, V domains shown)
VH: VKLLEQSGGGLVQPGGSLRLSCAVSGVTFSAYAMSWVRQAPGKGLEWVSGISGSGDSTDYADSVKGRLTISRDNSKNTLYLQMNSLRAEDTAIYYCASHLPDYWNLDYTRFFYYMDVWGKGTTVTVSS
VL: ELTQSPGTLSLSPGERATLSCRATQSISSNYLAWYQQRPGQAPRLLIYGASNRATDIPDRFSGSGSGTDFTLTISRLEPEDFAMYYCQQYDISPYTFGQGTKLEIK
notes: Human IgG1 kappa Fab from a pComb3 phage library, made as soluble Fab in E. coli; also called Fab 11; rsv 11H/11L

Key:
[1] = molecular target: T1, baculovirus-expressed FG fusion glycoprotein (respiratory syncytial virus, UniProt P03420 26-489; P03423 97-279); experiment: inhibition ELISA, free FG against coated FG
T1 construct: also called RSV FG glycoprotein; recombinant FG glycoprotein
T1 sequence (P03420 26-489, tags or fused parts left off): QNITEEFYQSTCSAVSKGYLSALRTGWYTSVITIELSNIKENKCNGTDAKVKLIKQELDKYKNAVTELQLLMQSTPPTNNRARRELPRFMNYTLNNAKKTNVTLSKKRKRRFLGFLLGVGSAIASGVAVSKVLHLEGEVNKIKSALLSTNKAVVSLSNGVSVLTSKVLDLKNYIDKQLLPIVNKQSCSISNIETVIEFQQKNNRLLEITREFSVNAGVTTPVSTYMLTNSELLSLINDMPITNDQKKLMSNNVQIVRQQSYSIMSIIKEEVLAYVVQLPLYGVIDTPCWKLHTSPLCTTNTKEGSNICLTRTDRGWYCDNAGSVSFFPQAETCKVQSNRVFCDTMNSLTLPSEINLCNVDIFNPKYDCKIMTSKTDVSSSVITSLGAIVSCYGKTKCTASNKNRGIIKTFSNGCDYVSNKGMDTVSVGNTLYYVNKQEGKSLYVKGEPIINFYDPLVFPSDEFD

[2] = molecular target: RSV (subgroup A) F glycoprotein (respiratory syncytial virus subgroup A …, UniProt P03420 26-574); experiment: cell-based or functional assay
Sequence of RSV (subgroup A) F glycoprotein (P03420 26-574): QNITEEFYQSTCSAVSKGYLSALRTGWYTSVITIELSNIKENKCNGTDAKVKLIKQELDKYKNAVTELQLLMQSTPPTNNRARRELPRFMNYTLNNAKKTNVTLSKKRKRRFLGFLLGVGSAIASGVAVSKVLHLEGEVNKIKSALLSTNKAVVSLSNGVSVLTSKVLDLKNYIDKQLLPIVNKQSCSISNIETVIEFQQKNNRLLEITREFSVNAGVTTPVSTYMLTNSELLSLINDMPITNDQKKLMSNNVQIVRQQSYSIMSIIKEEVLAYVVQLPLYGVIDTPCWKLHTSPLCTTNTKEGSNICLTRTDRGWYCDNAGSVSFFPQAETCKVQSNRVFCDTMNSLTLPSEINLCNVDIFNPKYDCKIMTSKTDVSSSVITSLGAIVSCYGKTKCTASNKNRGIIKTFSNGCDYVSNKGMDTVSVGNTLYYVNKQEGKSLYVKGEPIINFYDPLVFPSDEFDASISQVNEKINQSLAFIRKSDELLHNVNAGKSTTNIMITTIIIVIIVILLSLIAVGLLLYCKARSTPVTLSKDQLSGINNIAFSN

Binder	Ka [1]	Concentration of Fab Needed for 60% Plaque Reduction (µg/ml), RSV; purified from lysate [2]	Maximum Neutralization of RSV (Subgroup A); purified from lysate [2]
B1	~1e+08 M⁻¹	0.4 µg/mL	100%
B2	~1e+08 M⁻¹	0.2 µg/mL	98%
B3	~1e+08 M⁻¹	1.8 µg/mL	88%
